Assay results taken from US20250353908A1 (ARCELLX, published 2025).

T1: CS1-Fc (human, UniProt Q9NQ25 23-226)
T1 construct: also called recombinant human CS1-Fc; CS1-Fc polypeptide; not shown: Fc portion of CS1-Fc
T1 sequence: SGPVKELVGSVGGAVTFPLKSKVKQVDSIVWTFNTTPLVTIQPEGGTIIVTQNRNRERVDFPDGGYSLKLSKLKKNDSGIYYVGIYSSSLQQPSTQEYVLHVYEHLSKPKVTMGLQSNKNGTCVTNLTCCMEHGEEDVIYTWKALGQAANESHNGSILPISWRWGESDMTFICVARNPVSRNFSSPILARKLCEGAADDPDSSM


Target: T1, CS1-Fc
Assay: SPR (Biacore), adapter protein DD-GS linker-Q26, CS1-Fc target
Source text: One or more of the above discussed methods were used to identify the SEQ ID NO: 41-47, 49-61, 91-93 and 96-106 variant CS1 specific D domains. […] In addition to binding human CS1, the CS1DD03, CSDD006 and CS1DD007 D domains are cross-reactive with cyno/rhesus CS1.

Kd [nM]	Binder
38	CS1DD006-P26(Q26) Adapter (designed binder, Monovalent Adapter: CS1DD006 D domain, GS linker, AFP p26 (Q26); The SPR sentence names only the format DD-GS linker-Q26; also called monovalent CS1DD006-P26(Q26); CS1DD006 adapter protein of the format DD-GS linker-Q26) MGSWAEFFTRLDAIWERLEGLGGSEAELAAFEKEIAAFESELQAYKGKGYPEVETLKFHAAGIRQKLQAYRHNGGGGDGGGGSGGGGSGQESQALAKRSCGLFQKLGEYYLQNAFLVAYTKKAPQLTSSELMAITRKMAATAATCCQLSEDKLLACGEGAADIIIGHLCIRHEMTPVNPGVGQCCTSSYANRRPCFSSLVVDETYVPPAFSDDKFIFHKDLCQAQGVALQTMKQEFLINLVKQKPQITEEQLEAVIADFSGLLEKCCQGQEQEVCFAEEGQKLISKTRAALGV
23	CS1DD007 adapter protein of the format DD-GS linker-Q26 (designed binder) MGSWAEFFTRLDAIWERLEGLGGSEAELAALEKEIAAFESELQAYKGKGYPEVETLKFHAAGIRQKLQAYRHN

Continued, binder first:

Binder	Kd [nM]
CS1DD018 adapter protein of the format DD-GS linker-Q26 (designed binder) MGSWDEFNQRLGAFEERLQALGGSEAELAAFEKEIAAFESELQAYKGKGNPEVEFLRWYADGIRWELQAYRHNGGGGDGGGGSGGGGSGQESQALAKRSCGLFQKLGEYYLQNAFLVAYTKKAPQLTSSELMAITRKMAATAATCCQLSEDKLLACGEGAADIIIGHLCIRHEMTPVNPGVGQCCTSSYANRRPCFSSLVVDETYVPPAFSDDKFIFHKDLCQAQGVALQTMKQEFLINLVKQKPQITEEQLEAVIADFSGLLEKCCQGQEQEVCFAEEGQKLISKTRAALGV	40
CS1DD020-P26(Q26) Adapter (designed binder, Monovalent Adapter: CS1DD020 D domain, GS linker, AFP p26 (Q26); The SPR sentence names only the format DD-GS linker-Q26; also called monovalent CS1DD020-P26(Q26); C1DD020 adapter protein of the format DD-GS linker-Q26) MGSWDEFNQRLGAIEERLQALGGSEAELAALEKEIAAFESELQAYKGKGNPEVEFLRWYADGIRWELQAYRHNGGGGDGGGGSGGGGSGQESQALAKRSCGLFQKLGEYYLQNAFLVAYTKKAPQLTSSELMAITRKMAATAATCCQLSEDKLLACGEGAADIIIGHLCIRHEMTPVNPGVGQCCTSSYANRRPCFSSLVVDETYVPPAFSDDKFIFHKDLCQAQGVALQTMKQEFLINLVKQKPQITEEQLEAVIADFSGLLEKCCQGQEQEVCFAEEGQKLISKTRAALGV	18

Target: T1, CS1-Fc
Assay: phage ELISA, CS1-Fc captured on anti-human IgG1-Fc, anti-M13-HRP, A450 target / A450 IgG1-Fc
Protocol: To identify new CS1-specific D domains, a D domain phage library described in Intl. Appl. Pub. No. WO 2016164305 and U.S. Pat. No. 10,662,248 was screened with a CS1-Fc polypeptide following standard protocols. Individual colonies containing phagemid from the CS1 panning output were picked and phage were rescued. To assay target binding by ELISA, 96-well plates were coated with anti-human IgG1-Fc antibody followed by incubation with CS1-Fc or IgG1-Fc. Rescued phage diluted in ELISA blocking buffer was then added to each well. Binding was detected using an HRP-conjugated anti-M13 antibody and the ELISA ratio for each DD sequence was determined as the absorbance at 450 nm for target (i.e., CS1-Fc) divided by that for IgG1-Fc averaged across all screened wells containing that clone.

ELISA score (ratio of phage binding to CS1-Fc vs IgG-Fc) [ratio]	Binder
19.6	SEQ ID NO 89 (designed binder) MGSWSEFNSRLDAIFDRLFALGGSEAELAAFEKEIAAFESELQAYKGKGNPEVEELRSHAANIRASLQAYRHN
16.3	SEQ ID NO 90 (designed binder) MGSWSEFWIRLDAIRERLWALGGSEAELAAFEKEIAAFESELQAYKGKGNPEVEELRYFAANIRQQLQAYRHN
8.75	SEQ ID NO 72 (designed binder) MGSWYEFWHRLTAIEQRLWALGGSEAELAAFEKEIAAFESELQAYKGKGNPEVEDLRSYAAEIRWRLQAYRHN
19.2	CS1DD008 (designed binder) MGSWDEFNQRLGAIEERLQALGGSEAELAAFEKEIAAFESELQAYKGKGNPEVEFLRWYAAGIRWELQAYRHN
18	SEQ ID NO 66 (designed binder) MGSWAEFWSRLSAIDERLGALGGSEAELAAFEKEIAAFESELQAYKGKGNPEVEELREYAAEIRRVLQAYRHN
16.3	SEQ ID NO 82 (designed binder) MGSWSEFWNRLIAIDYRLLALGGSEAELAAFEKEIAAFESELQAYKGKGNPEVEELRDYAAHIRWNLQAYRHN
10.5	SEQ ID NO 70 (designed binder) MGSWMEFWHRLTAIDSRLEALGGSEAELAAFEKEIAAFESELQAYKGKGNPEVEDLRQYAASIRKSLQAYRHN
17.8	SEQ ID NO 77 (designed binder) MGSWSEFWFRLLAIEQRLEALGGSEAELAAFEKEIAAFESELQAYKGKGNPEVEDLRDYAALIREMLQAYRHN
13.4	SEQ ID NO 83 (designed binder) MGSWTEFWARLTAIDLRLIALGGSEAELAAFEKEIAAFESELQAYKGKGNPEVEELRDYAAFIRANLQAYRHN
16.9	SEQ ID NO 69 (designed binder) MGSWYEFWSRLSAIHVRLEALGGSEAELAAFEKEIAAFESELQAYKGKGNPEVEDLRAYAAFIRSELQAYRHN
18.6	SEQ ID NO 85 (designed binder) MGSWNEFNERLGAINHRLRALGGSEAELAAFEKEIAAFESELQAYKGKGNPEVEVLREGAAWIRAELQAYRHN
16.6	SEQ ID NO 76 (designed binder) MGSWEEFQNRLGAIWDRLEALGGSEAELAAFEKEIAAFESELQAYKGKGNPEVESLRWHAAGIRTRLQAYRHN

The remaining lines, values behind:

Binder	ELISA score (ratio of phage binding to CS1-Fc vs IgG-Fc) [ratio]
SEQ ID NO 84 (designed binder) MGSWIEFGWRLQAIEERLRALGGSEAELAAFEKEIAAFESELQAYKGKGNPEVEVLREWAAEIRWQLQAYRHN	16.3
SEQ ID NO 68 (designed binder) MGSWYEFWTRLTAIQMRLDALGGSEAELAAFEKEIAAFESELQAYKGKGNPEVEDLRAFAAQIRTHLQAYRHN	13.1
SEQ ID NO 75 (designed binder) MGSWHEFWTRLTAIQMRLDALGGSEAELAAFEKEIAAFESELQAYKGKGNPEVEDLRAFAAQIRTHLQAYRHN	16
SEQ ID NO 65 (designed binder) MGSWVEFEWRLYAIAGRLEALGGSEAELAAFEKEIAAFESELQAYKGKGNPEVEYLRQGAARIRATLQAYRHN	15.7
SEQ ID NO 87 (designed binder) MGSWTEFHNRLWAIYDRLDALGGSEAELAAFEKEIAAFESELQAYKGKGNPEVETLRHHAAGIRRSLQAYRHN	14.7
SEQ ID NO 80 (designed binder) MGSWTEFWYRLSAIDLRLEALGGSEAELAAFEKEIAAFESELQAYKGKGNPEVEELRDYAAYIRAELQAYRHN	17.8
SEQ ID NO 71 (designed binder) MGSWSEFWHRLSAIDARLEALGGSEAELAAFEKEIAAFESELQAYKGKGNPEVEDLRAYAAMIRNVLQAYRHN	14
SEQ ID NO 81 (designed binder) MGSWSEFWIRLAAIELRLSALGGSEAELAAFEKEIAAFESELQAYKGKGNPEVEELRDYAAIIRRELQAYRHN	13.8
SEQ ID NO 79 (designed binder) MGSWSEFWTRLAAIDMRLNALGGSEAELAAFEKEIAAFESELQAYKGKGNPEVEDLRDYAAQIREELQAYRHN	18.7
SEQ ID NO 74 (designed binder) MGSWSEFWMRLTAIDMRLAALGGSEAELAAFEKEIAAFESELQAYKGKGNPEVEELRDYAAVIRESLQAYRHN	18.3
SEQ ID NO 78 (designed binder) MGSWAEFWFRLAAIQMRLYALGGSEAELAAFEKEIAAFESELQAYKGKGNPEVEDLRDYAAHIRQELQAYRHN	17.7
SEQ ID NO 73 (designed binder) MGSWSEFWHRLSAIDHRLGALGGSEAELAAFEKEIAAFESELQAYKGKGNPEVEELRAYAAEIRRNLQAYRHN	18.7
CS1DD023 (designed binder) MGSWVEFYDRLEAIWQRLEALGGSEAELAAFEKEIAAFESELQAYKGKGNPEVEKLRRHAAGIRMRLQAYRHN	18.8
SEQ ID NO 86 (designed binder) MGSWIEFQTRLEAIYQRLDALGGSEAELAAFEKEIAAFESELQAYKGKGNPEVETLRWHAAGIRQYLQAYRHN	6.03
SEQ ID NO 88 (designed binder) MGSWEEFYVRLDAIWERLEALGGSEAELAAFEKEIAAFESELQAYKGKGNPEVEGLRWHAAGIRERLQAYRHN	13.5
SEQ ID NO 62 (designed binder) MGSWHFFKARLAYIKQGLEALGGSEAELALFEEFIAEFESDLQQYKGKGNPEVEALRKEAAAIRDELQAYRHN	13.5
